Results reported in patent US20200317753A1 (LIFEARC, published 2020).
Positions count from the first letter of the chain named. Like-named read-outs stand apart in the source and are kept apart here.

Key:
[1] = molecular target: T1, EV71-VLP (virus-like particle) (Enterovirus 71); test: binding ELISA on EV71-VLP, absorbance at 450 nm
T1 construct: Particle of several capsid proteins

[2] = molecular target: T2, SP70 peptide epitope of the EV71 VP1 capsid protein (Enterovirus 71); test: binding ELISA on SP70 peptide, absorbance at 450 nm
T2 construct: 15-amino acid peptide; residues 208-222 counted on VP1
T2 peptide: YPTFGEHKQEKDLEY

[3] = molecular target: T1, EV71-VLP (virus-like particle); test: Bio-Layer Interferometry, steady state plot (apparent KD)
[4] = molecular target: T2, SP70 peptide epitope of the EV71 VP1 …; test: isothermal titration calorimetry, observed KA
From the text: (§1) KD can be calculated using Gibbs free energy, enthalpy and entropy: ΔG=ΔH−TΔS and ΔG=RT In KD.

[5] = molecular target: T2, SP70 peptide epitope of the EV71 VP1 …; test: isothermal titration calorimetry, observed KD
From the text: as §1

[6] = molecular target: T2, SP70 peptide epitope of the EV71 VP1 …; test: isothermal titration calorimetry
[7] = molecular target: T2, SP70 peptide epitope of the EV71 VP1 …; test: binding ELISA on SP70 peptide, OD 650 nm
Method: (§2) Serial dilutions of antibody variants (starting from ˜100 −g/ml) were added to immobilised EV71-VLP or the SP70 peptide epitope, shaken for one hour at room temperature and washed with PBS-T. Anti-human kappa chain HRP was added and the incubation and washing steps were repeated. TMB/K-Blue substrate was incubated with the reaction for 5-10 minutes at room temperature before the reaction was stopped with H₂SO₄ RED STOP. The optical density was read at 450/650 nm.

[8] = molecular target: T1, EV71-VLP (virus-like particle); test: binding ELISA on EV71-VLP, absorbance at 450 nm; remark: listed apart in the source
[9] = molecular target: T2, SP70 peptide epitope of the EV71 VP1 …; test: binding ELISA on SP70 peptide, absorbance at 450 nm
[10] = molecular target: T2, SP70 peptide epitope of the EV71 VP1 …; test: isothermal titration calorimetry (observed KD); the text paragraph 208 prints 17.1 nM
[11] = molecular target: T2, SP70 peptide epitope of the EV71 VP1 …; test: binding ELISA on SP70 peptide, OD 650 nm [upper panel]
Method: as §2

[12] = molecular target: T2, SP70 peptide epitope of the EV71 VP1 …; test: binding ELISA on SP70 peptide, OD 650 nm
Method: as §2

[13] = molecular target: T2, SP70 peptide epitope of the EV71 VP1 …; test: binding ELISA on SP70 peptide, antibody not incubated, OD 650 nm [top panel]

B1: murine D5 antibody (antibody, V domains shown)
VH: EVQLQQSGAELVKPGASVKLSCTASGFNIKDTYIHWVKQRPEQGLEWIGKIDPANGNTKYDPKFQDKATITADTSSNTAYLQLSSLTSEDTAVYYCANSNYWFDFDYWGQGTTLTVSS
VL: DVLMTQTPLSLPVSLGDQASISCRSSQSIVHSNGNTYLEWYLQKPGQSPKLLIYKVSNRFSGVPDRFSGSGSGTDFTLKISRVEADDVGVYYCYQGSHVPYTFGGGTKLEIK
notes: Mouse monoclonal IgG1 (label mD5 IgG1); also called mD5; mouse D5
Question: For B1, which EC50 [1] is on record?
Answer: Its EC50 is 12.7 nM.

Question: What about the EC50 [2] of the same binder?
Answer: Its EC50 is 0.3 nM.

Question: What about the Kd [3] of the same binder?
Answer: Its Kd is 1.8 nM.

B2: chimeric D5 antibody (antibody, V domains shown)
VH: B1 VH
VL: B1 VL
notes: Human constant regions and murine D5 variable regions, expressed in Expi293 cells; also called chD5; cD5 CHCK
Question: Which results are given for B2?
Answer: Ka [4]: 5.66e+07 M⁻¹; Kd [5]: 17.1 nM; ΔH [6]: -12.8 kcal/mol; ΔS [6]: -7.63 cal/mol/deg; EC50 [7]: 1.4 nM; EC50 [8]: 1.6 nM; EC50 [9]: 6.7 nM; Kd [3]: 0.2 nM; Kd [10]: 17.7 nM

B3: hEV71 HAKA (antibody, V domains shown)
VH: QVQLVQSGAEVKKPGASVKVSCKASGYTFTDTYIHWVRQAPGQRLEWIGKIDPANGNTKYDPKFQDRVTITRDTSASTAYMELSSLRSEDTAVYYCASSNYWFDFDYWGQGTLVTVSS
VL: B1 VL with V2I, L3V, T7S, S14T, L15P, D17E, Q18P, K50Q, D86E, L109V
notes: Variable domains only; cloned into pHuG1 and pHuK (human IgG / kappa) vectors, expressed in Expi293 cells
Question: Does B3 bind [11]?
Answer: Result: binds

B4: hEV71 HAKB (antibody, V domains shown)
VH: B3 VH
VL: B1 VL with T7S, S14T, L15P, D17E, Q18P, K50Q, D86E, L109V
notes: Variable domains only; pHuG1 / pHuK vectors
Question: Does B4 bind [11]?
Answer: Result: binds

B5: hEV71 HBKA (antibody, V domains shown)
VH: B3 VH with Y27F, T28N, F29I, T30K, R67K, V68A, R72A, S98N
VL: B1 VL with V2I, L3V, T7S, S14T, L15P, D17E, Q18P, K50Q, D86E, L109V
notes: as for B4
Question: With B5 as the binder, how does the EC50 [7] read?
Answer: The EC50 was 1.62 nM.

B6: hEV71 HCKA (antibody, V domains shown)
VH: B3 VH with Y27F
VL: B1 VL with V2I, L3V, T7S, S14T, L15P, D17E, Q18P, K50Q, D86E, L109V
notes: as for B4
Question: Does B6 bind [12]?
Answer: Result: binds

B7: hEV71 HDKA (antibody, V domains shown)
VH: B3 VH with T28N
VL: B1 VL with V2I, L3V, T7S, S14T, L15P, D17E, Q18P, K50Q, D86E, L109V
notes: Variable domains only
Question: Does B7 bind [12]?
Answer: Result: binds

B8: hEV71 HEKA (antibody, V domains shown)
VH: B3 VH with F29I
VL: B1 VL with V2I, L3V, T7S, S14T, L15P, D17E, Q18P, K50Q, D86E, L109V
notes: Named only within the range hEV71 HCKA to hEV71 HJKA; Variable domains only
Question: Does B8 bind [12]?
Answer: Result: binds

B9: hEV71 HFKA (antibody, V domains shown)
VH: B3 VH with T30K
VL: B1 VL with V2I, L3V, T7S, S14T, L15P, D17E, Q18P, K50Q, D86E, L109V
notes: as for B8
Question: Does B9 bind [12]?
Answer: Result: binds

B10: hEV71 HGKA (antibody, V domains shown)
VH: B3 VH with R67K
VL: B1 VL with V2I, L3V, T7S, S14T, L15P, D17E, Q18P, K50Q, D86E, L109V
notes: as for B8
Question: Does B10 bind [12]?
Answer: Result: binds

B11: hEV71 HHKA (antibody, V domains shown)
VH: B3 VH with V68A
VL: B1 VL with V2I, L3V, T7S, S14T, L15P, D17E, Q18P, K50Q, D86E, L109V
notes: as for B8
Question: Does B11 bind [12]?
Answer: Result: binds

B12: hEV71 HIKA (antibody, V domains shown)
VH: B3 VH with R72A
VL: B1 VL with V2I, L3V, T7S, S14T, L15P, D17E, Q18P, K50Q, D86E, L109V
notes: as for B8
Question: Does B12 bind [12]?
Answer: Result: binds

B13: hEV71 HJKA (antibody, V domains shown)
VH: B3 VH with S98N
VL: B1 VL with V2I, L3V, T7S, S14T, L15P, D17E, Q18P, K50Q, D86E, L109V
notes: as for B4
Question: Does B13 bind [12]?
Answer: Result: binds

B14: hEV71 HMKA (antibody, V domains shown)
VH: B3 VH with K23T, Y27F, T28N, F29I, T30K, R67K, V68A, R72A, S77N, S98N
VL: B1 VL with V2I, L3V, T7S, S14T, L15P, D17E, Q18P, K50Q, D86E, L109V
notes: Variable domains only; pHuG1 / pHuK vectors, Expi293 cells; behaves as an IgG monomer; also called huEV71 HMKA; EVM00
Question: Which results are given for B14?
Answer: Ka [4]: 2.62e+07 M⁻¹; Kd [5]: 38.2 nM; ΔH [6]: -16.5 kcal/mol; ΔS [6]: -21.4 cal/mol/deg; EC50 [7]: 1.15 nM; EC50 (read off the curve) [13]: ~0.8 nM

B15: hEV71 HNKA (antibody, V domains shown)
VH: B3 VH with Y27F, T28N, F29I, T30K, R38K, R67K, V68A, R72A, S98N
VL: B1 VL with V2I, L3V, T7S, S14T, L15P, D17E, Q18P, K50Q, D86E, L109V
notes: Variable domains only
Question: B15 was tested. Which EC50 [7] did it give?
Answer: The EC50 was 1.35 nM.

B16: hEV71 HPKA (antibody, V domains shown)
VH: B3 VH with R67K, S98N
VL: B1 VL with V2I, L3V, T7S, S14T, L15P, D17E, Q18P, K50Q, D86E, L109V
notes: Variable domains only
Question: With B16 as the binder, how does the EC50 [7] read?
Answer: The EC50 was 67.7 nM.

B17: hEV71 HQKA (antibody, V domains shown)
VH: QVQLVQSGAEVKKPGASVKVSCTASGFNIKDTYIHWVKQAPGQRLEWIGKIDPANGNTKYDPKFQDKATITADTSANTAYMELSSLRSEDTAVYYCANSNYWFDFDYWGQGTLVTVSS
VL: B1 VL with V2I, L3V, T7S, S14T, L15P, D17E, Q18P, K50Q, D86E, L109V
notes: Variable domains only
Question: Which EC50 [7] does the source give for B17 here?
Answer: The EC50 was 1.09 nM.
